Experimental data: patent publication US20220265770A1, “TREATING NEURODEGENERATIVE DISEASES WITH PROGRANULIN” (NEURODYN, INC., priority 2008, published 2022)

Legend:
NSC-34 cells [1] = assay: NSC-34 serum deprivation with hPGRN protein (Alamar Blue); format: cell-based; details: hPGRN 100 ng/ml, Day 4, Alamar Blue
Method: Normal NSC-34 cells were maintained in culture using DMEM supplemented with 5% (v/v) fetal calf serum (FCS). Cells were aliquoted in 96-well plates at a density of 6,000 cells/well in 200 uL of DMEM 5% FCS. After 2 hours of culture (to ensure cell adhesion) media was removed, cells washed 1× with PBS and DMEM serum free medium with or without hPGRN (100 ng/ml) added to the cells. Following one and four days of culture remaining metabolically active cells were detected using the Alamar Blue® methodology (Molecular Probes/Invitrogen) following the manufacturer's instructions.

NSC-34 cells [2] = assay: BSSG-induced toxicity in NSC-34 and NSC-34-hPGRN cells (MTT); format: cell-based
Method: Normal NSC-34 and a stable NSC-34 transfectant that over expressed human PGRN (NSC-34-hPGRN) NCS34 were maintained in culture using DMEM supplemented with 5% (v/v) fetal calf serum (FCS). Cells were aliquoted in 96-well plates at a density of 8,000 cells/well in 200 uL of DMEM 5% FCS.d After two hours the neurotoxin Beta-sitosteryl glucoside (BSSG) was added at concentrations of 0, 100, 250, 500, 1000 and 2500 ng/mL with a final culture volume of 250 uL along with 0.1% (v/v) DMSO throughout. As a negative control for cell proliferation/survival, a series of wells were washed and media replaced with DMEM containing no FCS. Following 72 hours cell viability was measured using the MTT assay (Vybrant MTT Cell proliferation Assay; Invitrogen) according to manufacturer's instructions.
To determine if PGRN was capable of protecting NSC-34 cells against BSSG neurotoxicity a stable transfectant was developed to over express human PGRN constitutively.

PC12 cells = assay: Protection against MPTP toxicity in PC12 cells (MTT); format: cell-based; details: 4 nM progranulin 24 h pretreatment; 0-1000 μM MPTP 24 h
Method: PC12 cells were grown on collagen-coated 96-well plates, in Dulbecco's minimal essential medium (DMEM) in the presence of 10% fetal calf serum (FCS) supplemented with glutamine, penicillin and streptomycin. One day after plating (at 60-70% confluence, 40,000 cells/well), the growth medium was replaced by low-serum (2% FCS) medium with 4 nM progranulin (PGRN+) or without progranulin (PGRN−) (FIG. 19). […] 43(5-6):155-158 (2007)]

rat motor neurons = details: literature (Van Damme et al.); cited from earlier work

B1: Progranulin: growth factor-like protein; human progranulin SEQ ID NO: 2 (protein, listed as Homo sapiens)
chain: MWTLVSWVALTAGLVAGTRCPDGQFCPVACCLDPGGASYSCCRPLLDKWPTTLSRHLGGPCQVDAHCSAGHSCIFTVSGTSSCCPFPEAVACGDGHHCCPRGFHCSADGRSCFQRSGNNSVGAIQCPDSQFECPDFSTCCVMVDGSWGCCPMPQASCCEDRVHCCPHGAFCDLVHTRCITPTGTHPLAKKLPAQRTNRAVALSSSVMCPDARSRCPDGSTCCELPSGKYGCCPMPNATCCSDHLHCCPQDTVCDLIQSKCLSKENATTDLLTKLPAHTVGDVKCDMEVSCPDGYTCCRLQSGAWGCCPFTQAVCCEDHIHCCPAGFTCDTQKGTCEQGPHQVPWMEKAPAHLSLPDPQALKRDVPCDNVSSCPSSDTCCQLTSGEWGCCPIPEAVCCSDHQHCCPQGYTCVAEGQCQRGSEIVAGLEKMPARRASLSHPRDIGCDQHTSCPVGQTCCPSLGGSWACCQLPHAVCCEDRQHCCPAGYTCNVKARSCEKEVVSAQPATFLARSPHVGVKDVECGEGHFCHDNQTCCRDNRQGWACCPYRQGVCCADRRHCCPAGFRCAARGTKCLRREAPRWDAPLRDPALRQLL
increase in cell survival following serum starvation (NSC-34 cells [1]): 2.5 fold
cell survival in serum free cultures (MTT) (NSC-34 cells [2]; PGRN over expression, 72 hours, no FCS): increased cell survival
protection against BSSG neurotoxicity (MTT) (NSC-34 cells [2]; stable transfectant over expressing human PGRN, 72 hour, 1000 and 2500 ng/mL BSSG): protected NSC-34 cells
cell viability against MPTP (MTT) (PC12 cells): protective effect
survival of rat motor neurons under serum deprivation (rat motor neurons): increased survival of rat motor neurons
